The results in this text go back to article doi:10.1101/2025.07.15.665015 (bioRxiv, 2025).

Data set [1] has as its target T1, PKR (Homo sapiens, UniProt P19525 1-551). The experiment in a line: competition.
A further data set deals with PKRΔKD (Homo sapiens, UniProt P19525 1-184, del185-551). The data set is described as follows: single-molecule colocalization.
Data set [2] concerns the target T1, PKR. The experiment in a line: single-molecule colocalization.
Data set [3] concerns the molecule itself. The data set is described as follows: single-molecule TIRF two-colour co-localisation.
In data set [4] the target is T1, PKR. The data set is described as follows: competition. The source holds these as a separate data set.
Data set [5] concerns the target T1, PKR. The experiment in a line: single-molecule colocalization. This is another data set of the same source.

B1: 25-bp dsRNA (dsRNA)
RNA 1: GGGUUUUCCCAGUCACGACGUUGUA
RNA 2: UACAACGUCGUGACUGGGAAAACCC
B1: the binding result with PKR [1] is recorded as “binds”.

B2: 79-bp dsRNA (dsRNA)
RNA 1: GGGUUUUCCCAGUCACGACGUUGUAAAACGACGGCCAGUGAAUUCGAGCUCGGUACCCGGGGAUCCUCUAGAGUCGACC
RNA 2: GGUCGACUCUAGAGGAUCCCCGGGUACCGAGCUCGAAUUCACUGGCCGUCGUUUUACAACGUCGUGACUGGGAAAACCC
For B2, the binding result in the data set with PKRΔKD and with PKR [2] was “binds” each time.

B3: PKR(K-E) (K150E and K154E), Cy3-labelled (enzyme, human, UniProt P19525 1-551, looked up)
chain: MAGDLSAGFFMEELNTYRQKQGVVLKYQELPNSGPPHDRRFTFQVIIDGREFPEGEGRSKKEAKNAAAKLAVEILNKEKKAVSPLLLTTTNSSEGLSMGNYIGLINRIAQKKRLTVNYEQCASGVHGPEGFHYKCKMGQKEYSIGTGSTEQEAEQLAAKLAYLQILSEETSVKSDYLSSGSFATTCESQSNSLVTSTLASESSSEGDFSADTSEINSNSDSLNSSSLLMNGLRNNQRKAKRSLAPRFDLPDMKETKYTVDKRFGMDFKEIELIGSGGFGQVFKAKHRIDGKTYVIKRVKYNNEKAEREVKALAKLDHVNIVHYNGCWDGFDYDPETSDDSLESSDYDPENSKNSSRSKTKCLFIQMEFCDKGTLEQWIEKRRGEKLDKVLALELFEQITKGVDYIHSKKLIHRDLKPSNIFLVDTKQVKIGDFGLVTSLKNDGKRTRSKGTLRYMSPEQISSQDYGKEVDLYALGLILAELLHVCDTAFETSKFFTDLRDGIISDIFDKKEKTLLQKLLSKKPEDRPNTSEILRTLTVWKKSPEKNERHTC
modifications: Cy3 at the N-terminus, by sortase-mediated ligation of the peptide Cy3-CLPETGG
As to B3, the binding result in data set [3] was “binds”.

B4: 33-bp dsRNA (dsRNA)
RNA 1: GGGUUUUCCCAGUCACGACGUUGUAAAACGACG
RNA 2: CGUCGUUUUACAACGUCGUGACUGGGAAAACCC
For B4, the binding result in the data set with PKR [4] is given as “binds”.

B5: mini-VA (structured_RNA)
RNA: GGGUAUCAUGGCGGACGACCGGGGUUCGAACCCCGGAUCCGGCCGUCCGCCGUGAUACCC
With B5, the binding result with PKR [5] was “binds”.
